Results as given in the supplement of paper PMC6379048.

Columns and labels:
DIS3L2 = target: T1, DIS3L2 (UniProt Q8IYB7); assay: EC50 of free RNA motif oligo competing protein binding to immobilised probe
T1 sequence: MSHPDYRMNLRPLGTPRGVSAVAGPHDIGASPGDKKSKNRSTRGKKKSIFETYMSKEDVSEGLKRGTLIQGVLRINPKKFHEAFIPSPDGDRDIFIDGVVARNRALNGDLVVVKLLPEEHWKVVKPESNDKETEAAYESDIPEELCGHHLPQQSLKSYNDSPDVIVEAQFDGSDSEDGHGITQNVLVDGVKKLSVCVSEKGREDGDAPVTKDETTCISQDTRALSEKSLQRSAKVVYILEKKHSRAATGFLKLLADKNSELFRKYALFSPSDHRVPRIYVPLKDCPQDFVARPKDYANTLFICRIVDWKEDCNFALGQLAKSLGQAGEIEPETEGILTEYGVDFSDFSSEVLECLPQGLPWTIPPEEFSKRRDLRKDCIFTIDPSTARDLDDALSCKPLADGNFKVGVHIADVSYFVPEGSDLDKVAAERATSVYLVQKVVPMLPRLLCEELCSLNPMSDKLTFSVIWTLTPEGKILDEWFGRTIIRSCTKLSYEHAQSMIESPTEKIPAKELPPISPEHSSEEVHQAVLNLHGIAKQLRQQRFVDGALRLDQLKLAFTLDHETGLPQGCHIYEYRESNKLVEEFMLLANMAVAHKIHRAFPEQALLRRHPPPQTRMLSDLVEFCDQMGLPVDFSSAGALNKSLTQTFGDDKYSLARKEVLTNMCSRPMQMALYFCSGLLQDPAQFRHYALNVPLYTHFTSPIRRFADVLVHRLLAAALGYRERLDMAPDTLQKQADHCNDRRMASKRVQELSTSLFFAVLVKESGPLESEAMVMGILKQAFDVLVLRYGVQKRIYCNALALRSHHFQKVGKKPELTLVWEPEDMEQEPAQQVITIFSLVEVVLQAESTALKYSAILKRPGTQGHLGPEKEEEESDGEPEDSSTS
Method: (§1)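 Competition-binding assay: HEK293-FT cell lysate (2.5 mg protein) pre-incubated 1 h at 4°C with free motif-containing RNA oligos (0 to 30 µM, 12 doses), then pulled down with the same 5'-amino-C6 RNA oligos immobilised on NHS-Sepharose beads (30 min, 4°C). Bound proteins were quantified by label-free LC-MS/MS and normalised to the water control. EC50 came from a four-parameter log-logistic fit; Kd = EC50 x depletion factor. Random/reversed control probes are dropped.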

HNRNPUL1 = target: T2, HNRNPUL1 (UniProt Q9BUJ2); assay: as above
T2 sequence: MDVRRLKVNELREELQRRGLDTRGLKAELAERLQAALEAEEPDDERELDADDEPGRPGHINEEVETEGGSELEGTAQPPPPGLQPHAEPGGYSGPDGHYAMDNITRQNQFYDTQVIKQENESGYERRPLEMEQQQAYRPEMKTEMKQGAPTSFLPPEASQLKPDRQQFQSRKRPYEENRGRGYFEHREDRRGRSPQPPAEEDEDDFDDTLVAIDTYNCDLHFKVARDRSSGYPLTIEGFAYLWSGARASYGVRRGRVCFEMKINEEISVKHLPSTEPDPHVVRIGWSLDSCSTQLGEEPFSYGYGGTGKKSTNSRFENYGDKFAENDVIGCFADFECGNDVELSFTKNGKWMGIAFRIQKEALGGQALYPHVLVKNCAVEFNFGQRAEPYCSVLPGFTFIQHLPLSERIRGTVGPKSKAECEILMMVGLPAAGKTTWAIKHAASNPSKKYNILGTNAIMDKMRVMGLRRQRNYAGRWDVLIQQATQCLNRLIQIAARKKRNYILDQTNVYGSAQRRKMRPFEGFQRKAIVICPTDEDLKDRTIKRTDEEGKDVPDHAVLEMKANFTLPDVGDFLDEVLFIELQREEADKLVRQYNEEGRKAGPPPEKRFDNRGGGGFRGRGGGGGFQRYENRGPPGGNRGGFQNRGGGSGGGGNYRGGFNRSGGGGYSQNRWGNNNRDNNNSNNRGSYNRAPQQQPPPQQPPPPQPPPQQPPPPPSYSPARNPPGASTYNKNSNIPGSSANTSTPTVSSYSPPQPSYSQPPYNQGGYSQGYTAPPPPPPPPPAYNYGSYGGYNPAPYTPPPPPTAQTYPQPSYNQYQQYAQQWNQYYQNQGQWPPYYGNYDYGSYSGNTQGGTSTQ
Method: as §1

Sequence	EC50 (DIS3L2) [nM]	EC50 (HNRNPUL1) [nM]
AAUAAA	1340	1410
CUGUCCU	1180	152
UAUUUAU	376	643
